Biological target: protein kinase C theta (human, UniProt Q04759 1-706)
Test: cell-based or functional assay

Sequence of protein kinase C theta (Q04759 whole entry): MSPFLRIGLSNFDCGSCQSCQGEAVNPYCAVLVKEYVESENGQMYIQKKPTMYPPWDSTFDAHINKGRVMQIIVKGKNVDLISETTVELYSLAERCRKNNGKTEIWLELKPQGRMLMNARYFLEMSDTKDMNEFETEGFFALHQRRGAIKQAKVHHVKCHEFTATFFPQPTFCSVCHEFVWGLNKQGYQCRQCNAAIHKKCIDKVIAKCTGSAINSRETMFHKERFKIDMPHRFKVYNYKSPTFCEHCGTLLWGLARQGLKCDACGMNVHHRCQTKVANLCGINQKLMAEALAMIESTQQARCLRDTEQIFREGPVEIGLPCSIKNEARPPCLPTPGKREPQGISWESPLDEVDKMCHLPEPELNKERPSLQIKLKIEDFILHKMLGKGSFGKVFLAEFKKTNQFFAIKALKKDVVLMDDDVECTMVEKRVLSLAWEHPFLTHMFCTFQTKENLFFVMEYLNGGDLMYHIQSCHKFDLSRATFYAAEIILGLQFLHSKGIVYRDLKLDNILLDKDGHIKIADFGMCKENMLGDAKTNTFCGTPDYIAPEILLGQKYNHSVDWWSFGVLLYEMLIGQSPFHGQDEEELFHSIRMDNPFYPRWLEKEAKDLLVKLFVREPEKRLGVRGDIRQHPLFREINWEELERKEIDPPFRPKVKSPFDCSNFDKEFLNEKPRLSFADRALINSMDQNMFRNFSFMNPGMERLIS

RQIKIWFQNRRMKWKKMDQNMFRNFSFNMP [antennapedia-PKC theta peptide]
proliferation (3H-thymidine incorporation) of Th1 and Th2 cells stimulated with CD3 and CD28, relative to no inhibitor: 16 % of control levels
